Laboratory results from US20150158947A1 (COMPUGEN, published 2015).
Residue numbers refer to the chain shown, from its start. “And” between values parts separate entries of the source, which are not always exact repeats. Equal entries are not always repeated. Values belong to the binder of their own block, whether it stands above or below them.

Columns and labels:
[1] = target: T1, C1ORF32-ECD-mIgG2a fusion protein (SEQ ID NO: 24); experiment: hybridoma binding screen by ELISA on fusion proteins SEQ ID NO: 23 and SEQ ID NO: 24 or on HEK293T cells over expressing C1ORF32
T1 chain: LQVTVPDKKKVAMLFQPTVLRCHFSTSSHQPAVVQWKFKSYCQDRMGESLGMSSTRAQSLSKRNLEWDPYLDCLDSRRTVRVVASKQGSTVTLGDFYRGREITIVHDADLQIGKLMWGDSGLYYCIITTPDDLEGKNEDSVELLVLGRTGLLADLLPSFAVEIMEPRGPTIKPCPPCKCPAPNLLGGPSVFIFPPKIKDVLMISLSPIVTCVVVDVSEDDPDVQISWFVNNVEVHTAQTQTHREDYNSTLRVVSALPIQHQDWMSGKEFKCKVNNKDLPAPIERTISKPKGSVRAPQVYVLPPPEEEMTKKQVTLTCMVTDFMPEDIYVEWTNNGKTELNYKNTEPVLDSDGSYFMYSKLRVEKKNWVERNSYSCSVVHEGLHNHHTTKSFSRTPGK
Protocol: (§1) Binding screening was performed by ELISA using fusion proteins C1ORF32-ECD-hIgG1 (SEQ ID NO: 23) and C1ORF32-ECD-mIgG2a (SEQ ID NO: 24) or stable pool of HEK293T cells over expressing C1ORF32 described in section “Generation of stable pools expressing C1ORF32 protein” herein. […] Hybridomas were stabilized, subcloned and processed for antibody production and purification.

[2] = target: C1ORF32-ECD-hIgG1 fusion protein (SEQ ID NO: 23); experiment: as above
Protocol: as §1

[3] = target: T2, human C1ORF32-HA tagged protein (SEQ ID NO: 22) (human); experiment: flow cytometry on HEK293T cells expressing human C1ORF32-HA tagged (SEQ ID NO: 22), antibody 20 ug/ml, anti mouse DyLight 549 secondary
T2 chain: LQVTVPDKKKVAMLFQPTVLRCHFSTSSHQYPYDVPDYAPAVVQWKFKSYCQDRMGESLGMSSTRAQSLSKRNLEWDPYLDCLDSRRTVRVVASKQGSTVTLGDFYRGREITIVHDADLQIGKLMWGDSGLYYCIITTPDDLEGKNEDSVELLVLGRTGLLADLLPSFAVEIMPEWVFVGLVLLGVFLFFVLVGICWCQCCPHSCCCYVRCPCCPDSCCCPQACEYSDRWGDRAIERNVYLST
Protocol: (§2) FIG. 5A presents empty vector transfected cells; FIG. 5B presents human-C1ORF32 transfected cells (SEQ ID NO:1), FIG. 5C presents human-C1ORF32-HA tagged transfected cells(SEQ ID NO: 22); FIG. 5D presents chimeric mouse-human C1ORF32 transfected cells (SEQ ID NO: 8); FIG. 5E presents mouse C1ORF32 transfected cells (SEQ ID NO: 21).
(§3) Flow Cytometry analysis was performed to verify the mAbs binding to native cell surfaced C1ORF32 protein (SEQ ID NO: 1) in stable transfected cells described above. […] Anti-Cephalosporin served as negative control (SLRC, CH2025P). Recombinant HEK293T cells expressing C1ORF32 proteins, i.e. human C1ORF32 (SEQ ID NO:1), chimeric human-mouse C1ORF32 (SEQ ID NO:8) and mouse C1ORF32—Flag tagged (SEQ ID NO:21) were stained with anti C1ORF32 antibodies or anti-Cephalosporin followed by Donkey Anti Mouse-DyLight 549 conjugated secondary Ab (Jackson 715-506-150) as described in Example 6, herein. Fluorescent signal was observed.

[4] = target: T3, C1ORF32-ECD-mouse IgG2a-fused protein (SEQ ID NO: 4) (human C1ORF32 ECD, mouse IgG2a Fc); experiment: hybridoma binding screen by ELISA on ECD-mIgG2a fusion protein (SEQ ID NO: 4) or on HEK-293T cells over expressing C1ORF32
T3 construct: Purified recombinant fusion protein; also called C1ORF32-ECD-mouse IgG2a fusion protein; recombinant ECD-mIgG2a fusion protein
T3 chain: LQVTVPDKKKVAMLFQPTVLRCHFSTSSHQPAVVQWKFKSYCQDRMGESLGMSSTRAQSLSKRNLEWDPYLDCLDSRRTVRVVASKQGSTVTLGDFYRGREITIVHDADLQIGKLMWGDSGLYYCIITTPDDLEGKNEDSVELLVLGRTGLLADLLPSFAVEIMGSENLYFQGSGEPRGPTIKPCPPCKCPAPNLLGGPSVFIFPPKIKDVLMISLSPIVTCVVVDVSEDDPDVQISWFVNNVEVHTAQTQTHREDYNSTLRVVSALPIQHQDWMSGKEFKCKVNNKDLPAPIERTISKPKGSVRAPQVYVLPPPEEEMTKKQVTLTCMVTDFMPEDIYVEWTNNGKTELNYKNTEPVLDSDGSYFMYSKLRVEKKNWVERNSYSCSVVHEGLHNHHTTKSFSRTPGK
Source text: Three positive clones were further processed for subcloning in order to establish stable hybridoma clones. Hybridomas were stabilized, subcloned and processed for antibody production and purification.

[5] = target: T4, chimeric mouse-human C1ORF32 (SEQ ID NO: 8) (chimeric mouse (ECD) / human (tail), UniProt B5TVM2 36-249); experiment: flow cytometry on HEK293T cells expressing chimeric mouse-human C1ORF32 (SEQ ID NO: 8; panel title: 293T-C1ORF32 HA MUTATED CELLS), antibody 20 ug/ml, anti mouse DyLight 549 secondary
T4 construct: also called mouse-human chimeric C1ORF32; chimeric human-mouse C1ORF32
T4 chain: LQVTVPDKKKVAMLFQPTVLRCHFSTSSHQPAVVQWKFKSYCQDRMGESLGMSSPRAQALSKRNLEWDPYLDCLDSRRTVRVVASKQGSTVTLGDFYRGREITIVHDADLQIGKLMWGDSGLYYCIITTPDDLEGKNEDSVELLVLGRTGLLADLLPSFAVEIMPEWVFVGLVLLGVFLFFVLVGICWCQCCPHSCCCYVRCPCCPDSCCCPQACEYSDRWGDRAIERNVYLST
Protocol: as §2, §3

[6] = target: T5, human C1ORF32 protein (SEQ ID NO: 1) (human, UniProt Q71H61 21-234); experiment: flow cytometry on HEK293T cells expressing human C1ORF32 untagged (SEQ ID NO: 1), antibody 20 ug/ml, anti mouse DyLight 549 secondary
T5 construct: Stained on cells in flow cytometry and IHC, and probed in whole-cell lysates in Western blots; also called ILDR2; short isoform of human C1ORF32
T5 sequence: T4 chain with P55T, A59S
Protocol: as §2, §3

[7] = target: T6, mouse C1ORF32-Flag tagged protein (SEQ ID NO: 21) (mouse, UniProt B5TVM2 36-661); experiment: flow cytometry on HEK293T cells expressing mouse C1ORF32-Flag (SEQ ID NO: 21; panel title: 293-C1ORF32 HA MOUSE CELLS), antibody 20 ug/ml, anti mouse DyLight 549 secondary
T6 sequence: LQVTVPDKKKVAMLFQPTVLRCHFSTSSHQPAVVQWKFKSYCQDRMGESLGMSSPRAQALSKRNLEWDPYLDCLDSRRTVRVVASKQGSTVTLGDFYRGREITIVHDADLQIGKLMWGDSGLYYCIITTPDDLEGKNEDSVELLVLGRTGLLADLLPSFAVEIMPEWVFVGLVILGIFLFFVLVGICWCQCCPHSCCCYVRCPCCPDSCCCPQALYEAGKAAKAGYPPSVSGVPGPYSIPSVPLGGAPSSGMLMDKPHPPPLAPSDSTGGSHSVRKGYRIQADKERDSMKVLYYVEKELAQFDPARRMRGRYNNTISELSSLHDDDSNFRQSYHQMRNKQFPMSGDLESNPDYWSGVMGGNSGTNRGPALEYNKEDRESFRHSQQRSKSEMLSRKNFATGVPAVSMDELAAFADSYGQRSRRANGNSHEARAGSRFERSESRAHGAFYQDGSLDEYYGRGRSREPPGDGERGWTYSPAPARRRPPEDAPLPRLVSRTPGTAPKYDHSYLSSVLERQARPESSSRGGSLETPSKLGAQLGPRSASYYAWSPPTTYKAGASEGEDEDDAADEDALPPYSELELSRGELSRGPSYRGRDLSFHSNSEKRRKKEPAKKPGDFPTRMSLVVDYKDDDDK
Protocol: as §2, §3

[8] = target: T5, human C1ORF32 protein (SEQ ID NO: 1); experiment: flow cytometry titration of 5159-1 on CHOK1 cells expressing human C1ORF32
Protocol: (§4) The cells were washed once in FACS buffer, re-suspended in 25 ul of Alexa Fluor 647 conjugated F(ab′)2 fragment of goat anti mouse IgG (Jackson Immunoresearch cat#115-606-146) for 30 minutes at 4 degrees C. The cells were washed again in FACS buffer, re-suspended in 35 ul of FACS buffer and 35 ul of 4% paraformaldehyde and analysed on either a FACS Calibur or an Intellicyt HTFC. Data was analyzed by FlowJo, Excel and GraphPad Prism.

[9] = target: T5, human C1ORF32 protein (SEQ ID NO: 1); experiment: flow cytometry titration of 5159-1 on HEK293T cells expressing human C1ORF32
Protocol: as §4

[10] = target: T5, human C1ORF32 protein (SEQ ID NO: 1); experiment: cell-based or functional assay

B1: anti C1ORF32 monoclonal antibody 5166-2 (antibody, V domains shown)
VH: QIQLVQSGPELKKPGETVKISCKASAYTFTDYSMHWVKQAPGKGLKWMGWINTETGEPTYAGDFKGRFAFSLETSASTAYLQINNLKNEDTATYFCVRAGYYDYFDYWGQGTTLTVSS
VL: DIVMTQSHKFMSTSVGDRVSITCKASQDVVTAVAWYQQKPGQSPKLLIYWASNRHTGVPDRFTGSGSGTDFTLTITNVQSEDLADYFCQQYSSYPLTFGGGTKLEIK
notes: Murine IgG1 k from a hybridoma
binding result [1]: binds | binding result [2]: binds

B2: anti C1ORF32 monoclonal antibody 5159-2 (antibody, V domains shown)
VH: QVTLKESDPGILQPSQTLSLTCSFSGFSLSTSGMGVGWIRQPSGKGLEWLAHIWWDDVKRYNSALKNRLTISKDTSSSQVFLKIANVDTADTATYYCARIARHFFDYWGQGTTLTVSS
VL: DIKMTQSPSSMYASLGERVTITCKASQDIHGYLSWFHQKPVKSPKTLIYRANRLIDGVPSRFSGSGSGQDYFLTISSLEYEDMGIYYCLQYDEFPWTFGGGTKLEIK
notes: as for B1
binding result [3]: binds | binding result [4]: binds | binding result [5]: binds | binding result [6]: binds | binding result [7]: binds

Further lines, with some results ahead:

binding result [3]: binds | binding result [4]: binds | binding result [5]: binds | EC50 (read off the curve) [8]: ~1 mg/L | EC50 (read off the curve) [9]: ~0.8 mg/L
B3: anti C1ORF32 monoclonal antibody 5159-1 (antibody, V domains shown)
VH: QVTLKESGPGILQPSQTLNLTCSFSGFSLSSSYMGVGWIRQPSGKGLEWLAHIWWDDVKRYNPALKSRLTISKDISNNQVFLKIASVDTADSATYYCGRIDRHYFDYWGQGTILTVSS
VL: B2 VL with M11I, H30N, S34T, H37Q, V41G, I55L, F72S, E79D
notes: as for B1

binding result [1]: binds | binding result [2]: binds
B4: anti C1ORF32 monoclonal antibody 5166-9 (antibody, V domains shown)
VH: EVKMVESGGGLVQPGGSLKLSCATSGFTFSDYYMYWVRQTPEKRLEWVAYISNGGGSTYYPDTVKGRFTISRDNAKNTLYLQMSRLKSEDTAMYYCARQGYYYGSSPFAYWGQGTLVTVSA
VL: DIVMTQSHKFMSTSVGDRVSITCKASQDVSTAVAWYQQKPGQSPKLLIYSASYRYTGVPDRFTGSGSGTDFTFTISSVQAEDLAVYYCQQHYSTPYTFGGGTKLEIK
notes: Murine IgM k from a hybridoma
CDC activity, EC50, on CHOK1 cells expressing C1ORF32 (CellTiter-Glo viability, rabbit complement, 1 hr) [10]: 33 ng/ml and 0.2 nM | CDC activity, EC50, on HEK293T cells expressing C1ORF32 (CellTiter-Glo viability, rabbit complement, 1 hr) [10]: 1.8 ng/ml and 0.01 nM
